Measured values as given in article PMC3668531 (FEBS Open Bio, 2012).

Biological target: the molecule itself
Test: crystal structure; H101N crystals by vapour diffusion (7-8% PEG 20,000, 50 mM MES pH 6.3), 1 mM MnCl2 added, quick soak in 33% (w/v) L-rhamnose or D-allose; data at 100 K; four molecules (Mol-A to Mol-D) forming the tetramer

B1: mutant P. stutzeri L-RhI with a substitution of His101 with Asn (H101N) (enzyme, Pseudomonas stutzeri)
chain: MAEFRIAQDVVARENDRRASALKEDYEALGANLARRGVDIEAVTAKVEKFFVAVPSWGVGTGGTRFARFPGTGEPRGIFDKLDDCAVIQQLTRATPNVSLNIPWDKADPKELKARGDALGLGFDAMNSNTFSDAPGQAHSYKYGSLSHTDAATRAQAVEHNLECIEIGKAIGSKALTVWIGDGSNFPGQSNFTRAFERYLSAMAEIYKGLPDDWKLFSEHKMYEPAFYSTVVQDWGTNYLIAQTLGPKAQCLVDLGHHAPNTNIEMIVARLIQFGKLGGFHFNDSKYGDDDLDAGAIEPYRLFLVFNELVDAEARGVKGFHPAHMIDQSHNVTDPIESLINSANEIRRAYAQALLVDRAALSGYQEDNDALMATETLKRAYRTDVEPILAEARRRTGGAVDPVATYRASGYRARVAAERPASVAGGGGII
Q: With B1 as the protein, how does the “stoichiometry N” value read?
A: Its value is 4.
